The labels stand for the following.
B1: chicken vinculin domain 1 (Vd1; residues 1–258) (domain or fragment, UniProt P12003 1-258, looked up)
chain: MPVFHTRTIESILEPVAQQISHLVIMHEEGEVDGKAIPDLTAPVSAVQAAVSNLVRVGKETVQTTEDQILKRDMPPAFIKVENACTKLVRAAQMLQADPYSVPARDYLIDGSRGILSGTSDLLLTFDEAEVRKIIRVCKGILEYLTVAEVVETMEDLVTYTKNLGPGMTKMAKMIDERQQELTHQEHRVMLVNSMNTVKELLPVLISAMKIFVTTKNTKSQGIEEALKNRNFTVEKMSAEINEIIRVLQLTSWDEDAW

For experiment [1], the target named is talin(1359–1659), talin 9-helix module (mouse, UniProt P26039 1359-1659). Put plainly: SEC.
Experiment [2] addresses B1. Put plainly: SEC. (Size exclusion chromatography separates by hydrodynamic size, large species first.)

talin(1359–1659), talin 9-helix module, sequence (P26039 1359-1659): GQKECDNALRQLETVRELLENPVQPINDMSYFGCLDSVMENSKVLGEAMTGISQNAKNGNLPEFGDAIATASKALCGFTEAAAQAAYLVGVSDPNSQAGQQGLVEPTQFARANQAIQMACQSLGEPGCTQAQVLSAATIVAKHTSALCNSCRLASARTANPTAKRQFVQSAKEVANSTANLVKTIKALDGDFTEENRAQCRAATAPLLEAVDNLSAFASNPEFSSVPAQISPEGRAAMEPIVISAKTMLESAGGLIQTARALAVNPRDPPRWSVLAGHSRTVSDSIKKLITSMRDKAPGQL

Regarding B1, in experiment [1], the binding result is reported as “binds”.

B2: talin 4-helix bundle (residues 1458–1584) (domain or fragment, mouse, UniProt P26039 1458-1584, looked up)
chain: QQGLVEPTQFARANQAIQMACQSLGEPGCTQAQVLSAATIVAKHTSALCNSCRLASARTANPTAKRQFVQSAKEVANSTANLVKTIKALDGDFTEENRAQCRAATAPLLEAVDNLSAFASNPEFSSV
On to B2, for which the binding result in experiment [2] was “binds”.

Values taken from article PMC2937989 (The Journal of Biological Chemistry, 2010).
